Assay results from publication PMC8175468, “3D architecture and structural flexibility revealed in the subfamily of large glutamate dehydrogenases by a mycobacterial enzyme” (Communications Biology, 2021).

Key:
[1] = molecular target: the molecule itself; assay: crystal structure; Se-Met mL-GDH180 at 16.5 mg/ml with equimolar GarA; 100 mM sodium cacodylate pH 5.8, 12% v/v glycerol, 1.25 M (NH4)2SO4, 4 °C; two monomers in the asymmetric unit, tetramer by crystallographic symmetry; 6.27 Å
[2] = molecular target: the molecule itself; assay: cryo-EM structure; 0.3 mg/ml native mL-GDH180 on Quantifoil R2/2 grids; single-particle, D2 symmetry; open (4.19 Å) and closed (6.6 Å) tetramers

B1: Se-Met mL-GDH180 (seleno-methionine derivative of the mycobacterial L-GDH180 from Mycobacterium smegmatis MC2-155) (enzyme, UniProt A0R1C2 1-1594, looked up)
chain: MIRRLSVAFLSTYRGPQADAPGVTSTGPLAVAAHDDLVSDDLVAAHYRLASMRAPGETKAAVYPGDAGSGAALQIVTDQAPMLVDSVTVLLHRHGIAYTAIMNPVFRVRRGLDGELLDVRPAAEAAPGDGADECWILVPITAAADGEALTEATRLVPGILAEARQIGLDSGAMIAALHGLANDLATDLEGHFPNAERKEVAALLRWLADGHFVLLGYQQCVVGDGNAEVDPASRLGVLRLRNDVLPPLTDSDDLLVLAQATMPSYLRYGAYPYIVVVRESPGASRVIEHRFVGLFTVAAMNANALEIPLISRRVEEALAMAHRDPSHPGQLLRDIIQTIPRPELFALSSKQLLEMALAVVDLGSRRRTLLFLRADHLAHFVSCLVYLPRDRYTTAVRLEMQDILVRELGGAGIDYSARVSESPWAVVHFTVRLPEGTAADSVDTSLENESRIQDLLTEATRNWGDRMISAAAAASISPAALEHYAHAFPEDYKQAFAPQDAIADISLIEALQDDSVKLVLADTAEDRVWKLTWYLGGHSASLSELLPMLQSMGVVVLEERPFTLRRTDGLPVWIYQFKISPHPSIPHAPDAEAQRDTAQRFADAVTAIWHGRVEIDRFNELVMRAGLTWQQVVVLRAYAKYLRQAGFPYSQSHIESVLNENPHTTRSLIDLFEALFDPSQETDGRRDAQGAAAAVAADIDALVSLDTDRVLRAFANLIEATLRTNYFVARPDSARARNVLAFKLNPLVIKELPLPRPKFEIFVYSPRVEGVHLRFGFVARGGLRWSDRREDFRTEILGLVKAQAVKNAVIVPVGAKGGFVVKRPPTLTGDAAADREATRAEGVECYRLFISGLLDVTDNVDKATGAVVTPPEVVRRDGEDAYLVVAADKGTATFSDIANEVAKSYGFWLGDAFASGGSIGYDHKAMGITAKGAWESVKRHFREMGVDTQTQDFTVVGIGDMSGDVFGNGMLLSKHIRLVAAFDHRDIFLDPNPDAGRSWDERKRLFDLPRSSWADYDKSLISEGGGVYSRQQKSIPISPQVRTALGLDADVEELTPPALIKAILKAPVDLLWNGGIGTYIKAETEADADVGDRANDQIRVCGNQVRAKVIGEGGNLGVTALGRIEFDLAGGRINTDALDNSAGVDCSDHEVNIKILIDSAVTAGKVTPEERTELLLSMTDEVGELVLADNRDQNDLMGTSRANAASLLSVHARMIKDLVDNRGLNRELEALPSEKEIRRRADAGIGLTSPELATLMAHVKLALKDDVLASDLPDQEVFASRLPYYFPTRLREELHGEIRSHQLRREIITTMLVNDLVDTAGISYAYRITEDVGVGPVDAVRSYVAINAIFGIGDVWRRIRAAGDAGVPTSVTDRMTLDLRRLVDRAGRWLLNYRPQPLAVGAEINRFGAKVAALTPRMSEWLRGDDKAIVSKEAGDFASHGVPEDLAYHIATGLYQYSLLDVIDIADIVDREPDEVADTYFALMDHLGADALLTAVSRLSRDDRWHSLARLAIRDDIYGSLRALCFDVLAVGEPDENGEEKIAEWETTNSSRVTRARRTLTEIYKDGEQDLATLSVAARQIRSMTRTSGTGTTG
modifications: seleno-methionine in place of methionine
notes: No cleavage of the His6 tag is described; Crystallised from a solution that also held an equimolar amount of GarA from M. tuberculosis, which was not found in the crystal; also called seleno-methionine (Se-Met) derivative of mL-GDH180
stoichiometry N [1]: 4

B2: native mL-GDH180 (mycobacterial large glutamate dehydrogenase of 180 kDa subunits from Mycobacterium smegmatis MC2-155) (enzyme, UniProt A0R1C2 1-1594, looked up)
chain: MIRRLSVAFLSTYRGPQADAPGVTSTGPLAVAAHDDLVSDDLVAAHYRLASMRAPGETKAAVYPGDAGSGAALQIVTDQAPMLVDSVTVLLHRHGIAYTAIMNPVFRVRRGLDGELLDVRPAAEAAPGDGADECWILVPITAAADGEALTEATRLVPGILAEARQIGLDSGAMIAALHGLANDLATDLEGHFPNAERKEVAALLRWLADGHFVLLGYQQCVVGDGNAEVDPASRLGVLRLRNDVLPPLTDSDDLLVLAQATMPSYLRYGAYPYIVVVRESPGASRVIEHRFVGLFTVAAMNANALEIPLISRRVEEALAMAHRDPSHPGQLLRDIIQTIPRPELFALSSKQLLEMALAVVDLGSRRRTLLFLRADHLAHFVSCLVYLPRDRYTTAVRLEMQDILVRELGGAGIDYSARVSESPWAVVHFTVRLPEGTAADSVDTSLENESRIQDLLTEATRNWGDRMISAAAAASISPAALEHYAHAFPEDYKQAFAPQDAIADISLIEALQDDSVKLVLADTAEDRVWKLTWYLGGHSASLSELLPMLQSMGVVVLEERPFTLRRTDGLPVWIYQFKISPHPSIPHAPDAEAQRDTAQRFADAVTAIWHGRVEIDRFNELVMRAGLTWQQVVVLRAYAKYLRQAGFPYSQSHIESVLNENPHTTRSLIDLFEALFDPSQETDGRRDAQGAAAAVAADIDALVSLDTDRVLRAFANLIEATLRTNYFVARPDSARARNVLAFKLNPLVIKELPLPRPKFEIFVYSPRVEGVHLRFGFVARGGLRWSDRREDFRTEILGLVKAQAVKNAVIVPVGAKGGFVVKRPPTLTGDAAADREATRAEGVECYRLFISGLLDVTDNVDKATGAVVTPPEVVRRDGEDAYLVVAADKGTATFSDIANEVAKSYGFWLGDAFASGGSIGYDHKAMGITAKGAWESVKRHFREMGVDTQTQDFTVVGIGDMSGDVFGNGMLLSKHIRLVAAFDHRDIFLDPNPDAGRSWDERKRLFDLPRSSWADYDKSLISEGGGVYSRQQKSIPISPQVRTALGLDADVEELTPPALIKAILKAPVDLLWNGGIGTYIKAETEADADVGDRANDQIRVCGNQVRAKVIGEGGNLGVTALGRIEFDLAGGRINTDALDNSAGVDCSDHEVNIKILIDSAVTAGKVTPEERTELLLSMTDEVGELVLADNRDQNDLMGTSRANAASLLSVHARMIKDLVDNRGLNRELEALPSEKEIRRRADAGIGLTSPELATLMAHVKLALKDDVLASDLPDQEVFASRLPYYFPTRLREELHGEIRSHQLRREIITTMLVNDLVDTAGISYAYRITEDVGVGPVDAVRSYVAINAIFGIGDVWRRIRAAGDAGVPTSVTDRMTLDLRRLVDRAGRWLLNYRPQPLAVGAEINRFGAKVAALTPRMSEWLRGDDKAIVSKEAGDFASHGVPEDLAYHIATGLYQYSLLDVIDIADIVDREPDEVADTYFALMDHLGADALLTAVSRLSRDDRWHSLARLAIRDDIYGSLRALCFDVLAVGEPDENGEEKIAEWETTNSSRVTRARRTLTEIYKDGEQDLATLSVAARQIRSMTRTSGTGTTG
notes: NAD-dependent large glutamate dehydrogenase (L-GDH180), Mycobacterium smegmatis MC2-155, MSMEG_4699, Uniprot A0R1C2; No cleavage of the His6 tag is described; Only residues 500-1588 are modelled in the cryo-EM coordinates (7A1D); also called L-GDH180 from M. smegmatis; MSMEG_4699; source: E. coli BL21(DE3) grown in LB broth, purified (HisTrap HP, Superose 6 size-exclusion chromatography)
stoichiometry N [2]: 4
